Substrate: NC(=O)C[C@H](N)C(=O)O
Assay: circular dichroism hydrolysis assay
Type: biochemical, Rhodospirillum rubrum
Conditions: native RrA, pH 7.5, 5 mM citrate-phosphate-borate buffer, 37 °C
Description: circular dichroism hydrolysis assay on RrA (L-asparaginase from Rhodospirillum rubrum)

B1: RrA (L-asparaginase from Rhodospirillum rubrum) (Rhodospirillum rubrum ATCC 11170) (protein)
chain: MAVSPSPLRIFTAGGTIDKDYRLEENGLVVGDPFVAEVLKTARLAGAVSIVALSRKDSLDFTEADREAIGRAVGQAVEDHILLTHGTDTMVETARYLGGLPELAGKTVVLSGAMVPGRVGGSDAAFNIGFACAAALMLAPGVYIAMHGKVFDPAKTRKNRGLGRFEPIDDQE
notes: 172 aa, 18 kDa, tetramer; native unconjugated enzyme
Km: 4.8 ± 1.6 mM | Vmax: 59 µmol/min/mg | Vmax/Km: 12300 µL/min/mg

Source: paper PMC9029710, “Improvement of Biocatalytic Properties and Cytotoxic Activity of L-Asparaginase from Rhodospirillum rubrum by Conjugation with Chitosan-Based Cationic Polyelectrolytes” (Pharmaceuticals, 2022)
